For test [1], the target named is A230V human cardiac actin (A230V ACTC) (human). Description: pyrene-actin polymerisation assay (critical concentration); actin in G-buffer mixed with 2.5% pyrene-labeled alpha-skeletal actin; polymerization buffer 25 mM Tris pH 8.0, 50 mM KCl, 1 mM EGTA, 2 mM MgCl2, 0.1 mM ATP; Cc is the x-intercept of the change in pyrene fluorescence against actin concentration; monomer to filament.

For test [2], the target named is DNase-I (UniProt P00639).
Test [3] has as its target A331P human cardiac actin (A331P ACTC) (human). As to the kind of experiment: pyrene-actin polymerisation assay (critical concentration); actin in G-buffer mixed with 2.5% pyrene-labeled alpha-skeletal actin; polymerization buffer 25 mM Tris pH 8.0, 50 mM KCl, 1 mM EGTA, 2 mM MgCl2, 0.1 mM ATP; Cc is the x-intercept of the change in pyrene fluorescence against actin concentration; monomer to filament.

Test [4] has as its target E99K human cardiac actin (E99K ACTC) (human). The test is described as above.
For test [5], the target named is E361G human cardiac actin (E361G ACTC) (human). Described as above.
In test [6] the target is M305L human cardiac actin (M305L ACTC) (human). Described as above.
The target of test [7] is R312H human cardiac actin (R312H ACTC) (human). Described as above.
Test [8] concerns the target Y166C human cardiac actin (Y166C ACTC) (human). The description is as above.
The target of test [9] is wildtype human cardiac actin (WT ACTC) (human) (UniProt P68032). Described as above.

Sequence of DNase-I (P00639 23-282): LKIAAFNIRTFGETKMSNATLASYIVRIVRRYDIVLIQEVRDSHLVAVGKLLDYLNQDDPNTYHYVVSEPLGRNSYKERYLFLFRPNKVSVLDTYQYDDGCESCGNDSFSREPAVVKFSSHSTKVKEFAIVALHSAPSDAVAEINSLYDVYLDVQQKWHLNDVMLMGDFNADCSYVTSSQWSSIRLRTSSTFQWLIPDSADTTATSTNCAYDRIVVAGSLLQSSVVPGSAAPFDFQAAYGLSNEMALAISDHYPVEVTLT

For “A230V human cardiac actin (A230V ACTC) (natural protein)”, the Cc (critical concentration of polymerisation) in test [1] came to 2.11 µM. This substance also registered an IC50 of inhibition of DNase-I activity (A260 with salmon sperm DNA; 0 to 100 nM ACTC, 15.4 nM DNase-I) in [2] of 15.3 nM.
For “A331P human cardiac actin (A331P ACTC) (natural protein)”, the Cc (critical concentration of polymerisation) in test [3] came out at 2.95 µM. In test [2], the IC50 of inhibition of DNase-I activity (A260 with salmon sperm DNA; 0 to 100 nM ACTC, 15.4 nM DNase-I) came to 26 nM.
In test [4], “E99K human cardiac actin (E99K ACTC) (natural protein)” showed a Cc (critical concentration of polymerisation) of 1.67 µM. For the same substance, the IC50 of inhibition of DNase-I activity (A260 with salmon sperm DNA; 0 to 100 nM ACTC, 15.4 nM DNase-I) in test [2] worked out at 25.7 nM.
For the substance “E361G human cardiac actin (E361G ACTC) (natural protein)”, the Cc (critical concentration of polymerisation) in [5] is 0.58 µM. The IC50 of inhibition of DNase-I activity (A260 with salmon sperm DNA; 0 to 100 nM ACTC, 15.4 nM DNase-I) in [2] was determined as 16.8 nM.
Consider “M305L human cardiac actin (M305L ACTC) (natural protein)”, for which, in [6], the Cc (critical concentration of polymerisation) was determined as 2.21 µM. In test [2], the IC50 of inhibition of DNase-I activity (A260 with salmon sperm DNA; 0 to 100 nM ACTC, 15.4 nM DNase-I) was 17 nM.
For “R312H human cardiac actin (R312H ACTC) (natural protein)”, in test [7], the Cc (critical concentration of polymerisation) stood at 4.75 µM. The IC50 of inhibition of DNase-I activity (A260 with salmon sperm DNA; 0 to 100 nM ACTC, 15.4 nM DNase-I); the value rose on later days after purification in test [2] is 36.7 nM.
“Y166C human cardiac actin (Y166C ACTC) (natural protein)” registered a Cc (critical concentration of polymerisation) in [8] of 2.67 µM. In addition, the IC50 of inhibition of DNase-I activity (A260 with salmon sperm DNA; 0 to 100 nM ACTC, 15.4 nM DNase-I) in test [2] was determined as 24.6 nM.
The substance “wildtype human cardiac actin (WT ACTC) (from UniProt P68032 1-377) (natural protein)” registered a Cc (critical concentration of polymerisation) in [9] of 0.28 µM. In addition, in [2], the IC50 of inhibition of DNase-I activity (A260 with salmon sperm DNA; 0 to 100 nM ACTC, 15.4 nM DNase-I) was determined as 13.2 nM.

These data come from article PMC3348139.
